Assay results: the Human Domainome abundance scans (Beltran et al. 2025)

B1: Gamma-crystallin C, residues 4 to 79; numbered along this chain, P07315 (parent)
chain: ITFYEDRAFQGRSYETTTDCPNLQPYFSRCNSIRVESGCWMLYERPNYQGQQYLLRRGEYPDYQQWMGLSDSIRSC

Variants of: B1
Assay: abundance fitness (aPCA) (normalised: wild type 0, dead -1); higher = more abundant; growth selection in yeast, the domain comes from the species named
Conditions: Homo sapiens

Abundance fitness of substitutions, site by site:
D62: C -0.177, A -0.006, N -0.043, H -0.106, I -0.26, T -0.055, W 0.059, R -0.034, L -0.086, G -0.013, Q -0.062, M -0.03, V -0.015, S -0.071, Y -0.037, F 0.041, P -0.401
Q65: D -0.019, E 0.052, Y 0.029, V -0.041, C 0, P 0.027, N 0.014, W -0.119, M 0.015, L -0.088, F -0.253, H -0.065, R -0.036, K -0.175, S -0.042, I -0.133, T -0.089, A 0.006
Q64: L -0.081, A -0.08, K -0.042, S -0.188, F -0.09, I -0.039, P -0.013, H 0.155, W -0.021, C 0.062, M -0.101, Y -0.182, V -0.022, T -0.004, N 0.044, E 0.024, G -0.045
W66: A 0.039, I -0.006, K -0.023, C -0.168, Q 0.046, E 0.068, D -0.12, N 0.091, L -0.082, H -0.01, M -0.093, P 0.005, G 0.059, T 0.021, F -0.009
P61: R -0.038, M 0.002, G -0.041, I -0.129, H -0.205, S 0.004, L -0.064, D -0.034, F -0.039, K 0, C -0.072, A -0.004, Y -0.018, T -0.142, E -0.094, Q -0.051, V -0.083
L55: Y -0.04
E59: F -0.039, R -0.181, L -0.084, N -0.155, T -0.196, W -0.275, K 0, V -0.053, S 0.049, A -0.07, M -0.029, I -0.789, Q 0.009, D 0.025, G 0.019, P 0.003
Y60: L -0.247, F -0.198
R56: N 0.034, C 0.086, E 0.005, P -0.115, S -0.611, A -0.019, M 0.118, Q -0.003, W -0.029, T 0.071, F 0.195, Y 0.255, L -0.062, K -0.018, D -0.107, V 0.039
G58: M -0.223, Q -0.166, L -0.659, K -0.197, W -0.408, D 0.251, T -0.102, E -0.272, S -0.039, V -1, R -0.16, Y 0.009, P -0.674, N 0.034
R57: P -0.009, I -0.053, V 0.024, A 0.046, W -0.143, C 0.142, G 0.051, Q 0.044, L -0.059, Y -0.269, H 0.001, M 0.07, S -0.039, F 0.059, K 0.049, T 0.244, E 0.064
Y63: N -0.088, A -0.115, M -0.12, R -0.049, D -0.067, V -0.103, P 0.094, G -0.041, E -0.146, Q -0.12, I -0.028, H -0.234, W -0.126, L -0.097, F 0.032, S -0.06, T -0.113
